Test results: article PMC3794784, “The Role of Initial Oligomers in Amyloid Fibril Formation by Human Stefin B” (International Journal of Molecular Sciences, 2013)
Where “and” joins values, the source holds several entries; their conditions need not be identical. Equal entries are not always repeated.

Columns and labels:
[1] = target: the molecule itself; assay: native MS; ESI-Q-TOF MS of SEC fractions, stefin B in 0.02 M ammonium acetate, pH 7.5, injected directly, positive mode
[2] = target: the molecule itself; assay: SEC; pH dependent transitions started from separated tetramers or higher-order oligomers; 34 μM protein, 2 h at 23 °C at pH 4.8, 5.8 or 7.0, 0.15 M NaCl, 9% (v/v) TFE
[3] = target: the molecule itself; assay: SEC; oligomers isolated on Superdex 75 and then loaded on Superdex 200; room temperature; 0.01 M phosphate buffer, pH 7.0, 0.15 M NaCl (0.02 M ammonium acetate, pH 7.5 for ESI MS samples)
[4] = target: the molecule itself; assay: SEC; time course started from SEC-purified monomers, dimers, tetramers or higher-order oligomers; pH 5.8 (0.1 M phosphate buffer, 0.15 M NaCl, 9% (v/v) TFE, 25 °C); an aliquot every hour on Superdex 75; tetramer to dimers
[5] = target: the molecule itself; assay: SEC; concentration dependence (34, 75, 100 μM), started from the oligomer mixture; 0.02 M ammonium acetate, pH 7.5, 0.15 M NaCl, 9% (v/v) TFE, 50 °C, 300 rpm, 5 h; aliquots on Superdex 75; dimer to monomers, Kd = [M]^2/[D]
[6] = target: the molecule itself; assay: SEC; concentration dependence (4, 9, 34, 75, 100 μM), started from the oligomer mixture; 0.1 M phosphate buffer, pH 5.8, 0.15 M NaCl, 9% (v/v) TFE, 25 °C, 300 rpm, 5 h; aliquots on Superdex 75; tetramer to dimers, Kd = [D]^2/[T]

B1: Recombinant human stefin B (S3E31) (natural protein, UniProt P04080 1-98, looked up)
chain: MMSGAPSATQPATAETQHIADQVRSQLEEKENKKFPVFKAVSFKSQVVAGTNYFIKVHVGDEDFVHLRVFQSLPHENKPLTLSNYQTNKAKHDELTYF
notes: human stefin B (product of the cystatin B gene), a globular protein of 98 amino acid residues; variant S3E31: Ser at position 3 instead of Cys, Glu at position 31; also called cystatin B
stoichiometry N [1]: 10 and 8
stoichiometry N [2]: 6 and 3
stoichiometry N [3]: 2 and 4
koff [4]: 0.0001 s⁻¹
Ka [5]: 612000 M⁻¹
Kd [5]: 1.63 ± 0.31 µM
Ka [6]: 3080 M⁻¹
Kd [6]: 325 ± 180 µM
